According to patent US20260207704A1, “STAPLED PEPTIDES AND METHODS THEREOF” (priority 2022, published 2026):
Blank lines part the entries; values can stand above or below the binder they belong to. *1 amine or outer side, *2 acyl side, *3 side chain or, on linkers, in order; H or OH if unused. Bridges are numbered along the chain shown (N, C = ends). Primed or numbered codes have the meaning given here. [ ]: non-standard residue; d: D form. PyrS2(6) = (S)-3-amino-1-((pent-4-en-1-yloxy)carbonyl)pyrrolidine-3-carboxylic acid, stapled with another olefin-containing amino acid residue through the olefin group, O=C(OCCCC=[*:3])N1CC[C@@](N[*:1])(C(=O)[*:2])C1; B5(4) = 2-amino-2-(pent-4-en-1-yl)hept-6-enoic acid, stapled through each of its two olefin groups with other olefin-containing amino acid residues, O=C(C(CCCC=[*:3])(CCCC=[*:4])N[*:1])[*:2]; PyrS2″ = (S)-3-amino-1-((pent-4-en-1-yloxy)carbonyl)pyrrolidine-3-carboxylic acid (olefin stapling residue), C=CCCCOC(=O)N1CC[C@@](N[*:1])(C(=O)[*:2])C1; PyrS2 = (S)-3-amino-1-((pent-4-en-1-yloxy)carbonyl)pyrrolidine-3-carboxylic acid, olefin staple residue, C=CCCCOC(=O)N1CC[C@@](N[*:1])(C(=O)[*:2])C1; PyrS2(3) = (S)-3-amino-1-((pent-4-en-1-yloxy)carbonyl)pyrrolidine-3-carboxylic acid, olefin residue, C=CCCCOC(=O)N1CC[C@@](N[*:1])(C(=O)[*:2])C1; PyrS2(5) = (S)-3-amino-1-((pent-4-en-1-yloxy)carbonyl)pyrrolidine-3-carboxylic acid, C=CCCCOC(=O)N1CC[C@@](N[*:1])(C(=O)[*:2])C1; B5″ = 2-amino-2-(pent-4-en-1-yl)hept-6-enoic acid (bis-olefin stapling residue), C=CCCCC(CCCC=C)(N[*:1])C(=O)[*:2]; B5(5) = 2-amino-2-(pent-4-en-1-yl)hept-6-enoic acid (two olefin arms), C=CCCCC(CCCC=C)(N[*:1])C(=O)[*:2]; B5(3) = 2-amino-2-(pent-4-en-1-yl)hept-6-enoic acid, two olefin arms, C=CCCCC(CCCC=C)(N[*:1])C(=O)[*:2]; 2F3MeF(3) = aromatic amino acid residue, Cc1cccc(C[C@H](N[*:1])C(=O)[*:2])c1F; 2F3MeF″ = aromatic residue, Cc1cccc(C[C@H](N[*:1])C(=O)[*:2])c1F; Phe(3-COOH) = N[C@@H](Cc1cccc(C(=O)O)c1)C(=O)O; 2F3MeF = Cc1cccc(C[C@H](N[*:1])C(=O)[*:2])c1F; Bta = N[C@@H](Cc1csc2ccccc12)C(=O)O; αAllylPro = C=CC[C@@]1(C(=O)O)CCCN1; BztA = aromatic amino acid residue; 4mampiperidine = not defined here; tBuAla = CC(C)(C)C[C@H](N)C(=O)O; 3Thi = N[C@@H](Cc1ccsc1)C(=O)O; Cha = N[C@@H](CC1CCCCC1)C(=O)O; TriAzLys(3) = not defined here; hSer = N[C@@H](CCO)C(=O)O; BztA″ = aromatic residue; Orn = NCCC[C@H](N)C(=O)O; TfeGA = not defined here; AsnR = not defined here; GlnR = not defined here; sAla = not defined here; PL3 = not defined here; B5 = not defined here

Experiments:
[1] = molecular target: beta-catenin (human); test: cell-based or functional assay
[2] = molecular target: beta-catenin (human); test: fluorescence polarization; bin >50 nM
[3] = molecular target: beta-catenin (human); test: fluorescence polarization; bin >200 nM

beta-catenin (human), sequence (B6V8E6 146-665 limits assumed): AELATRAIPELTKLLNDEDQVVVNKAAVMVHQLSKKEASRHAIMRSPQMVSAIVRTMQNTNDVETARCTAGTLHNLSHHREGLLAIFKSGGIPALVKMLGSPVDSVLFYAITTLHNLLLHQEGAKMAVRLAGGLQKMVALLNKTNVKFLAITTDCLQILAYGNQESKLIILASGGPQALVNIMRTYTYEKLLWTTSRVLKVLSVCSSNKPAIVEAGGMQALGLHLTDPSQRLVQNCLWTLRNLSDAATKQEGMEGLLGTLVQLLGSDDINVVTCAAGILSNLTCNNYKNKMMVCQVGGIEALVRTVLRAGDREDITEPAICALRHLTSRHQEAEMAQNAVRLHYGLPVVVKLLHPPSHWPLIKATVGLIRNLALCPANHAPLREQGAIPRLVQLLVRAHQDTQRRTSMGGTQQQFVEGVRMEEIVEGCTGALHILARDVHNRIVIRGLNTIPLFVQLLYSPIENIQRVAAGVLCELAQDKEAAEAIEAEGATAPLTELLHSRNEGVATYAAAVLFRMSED

NanoBRET Abs IC50 (bin >3.0 uM) [1]: < 10000 nM | IC50 [2]: < 200 nM
B1: I-128 (peptide)
peptide: Ac-[αAllylPro]D[tBuAla][B5(4)]D[TfeGA]AAFK[PyrS2″][2F3MeF][Bta][GlnR]L-NH2
modifications: bridge 10-14; not fully specified (bridges); reading uncertain; also: Lys*3 and GlnR*3 marked *3

NanoBRET Abs IC50 [1]: > 10000 nM | IC50 [3]: < 750 nM
B3: I-131 (peptide)
peptide: Ac-[αAllylPro]D[tBuAla][B5]D[Phe(3-COOH)][GlnR]AFL[PyrS2″][2F3MeF″][BztA″][GlnR](29N2spiroundecane)A-NH2
modifications: reading uncertain; also: staple links not given here, printed as Ac-PL3-Asp-Npg-B5-Asp-3COOHF-GlnR-Ala-Phe-Leu-PyrS2-2F3MeF-BztA-[29N2spiroundecane]GlnR-Ala-NH2

IC50 [3]: < 750 nM
B7: I-96 (peptide)
peptide: Ac-[αAllylPro]D[tBuAla][B5(4)]D[Phe(3-COOH)][GlnR]AFL[PyrS2″][2F3MeF(3)][BztA][GlnR](4mampiperidine)A-NH2
modifications: staple 1-4 (inferred); not fully specified (bridges); printed as Ac-PL3-Asp-Npg-B5-Asp-3COOHF-GlnR-Ala-Phe-Leu-PyrS2-2F3MeF-BztA-[4mampiperidine]GlnR-Ala-NH2; reading uncertain

IC50 [3]: < 750 nM
B10: I-117 (peptide)
peptide: Ac-[αAllylPro]D[tBuAla][B5″]N[TfeGA]AAFK[PyrS2″][2F3MeF][Bta][GlnR]A-NH2
modifications: bridge 10-14; not fully specified (bridges); reading uncertain; also: Lys*3 and GlnR*3 marked *3

IC50 [3]: < 750 nM
B11: I-148 (peptide)
peptide: Ac-[αAllylPro]N[Cha][B5″]DQ[hSer]AF[GlnR][PyrS2″]F[Bta]K-NH2
modifications: bridge 10-14; reading uncertain; also: PL3-B5 and PyrS2 links not placed, printed as Ac-PL3-Asn-Cha-B5-Asp-Gln-Hse-Ala-Phe-GlnR*3-PyrS2-Phe-BztA-Lys*3-NH2

IC50 [3]: < 750 nM
B14: I-91 (peptide)
peptide: Ac-[PL3]D[tBuAla][B5][hSer][Phe(3-COOH)]QAFK[PyrS2″][3Thi][BztA][GlnR]A-NH2
modifications: staple 1-4 (inferred); bridge 10-14; not fully specified (residue 10, bridges); printed as Ac-PL3-Asp-Npg-B5-Hse-3COOHF-Gln-Ala-Phe-Lys*3-PyrS2-3Thi-BztA-GlnR*3-Ala-NH2; reading uncertain; also: Lys10 and GlnR14 marked *3

NanoBRET Abs IC50 [1]: > 10000 nM | IC50 [2]: < 200 nM
B16: I-123 (peptide)
peptide: Ac-[αAllylPro]D[tBuAla][B5(4)]D[TfeGA]FAFK[PyrS2″][2F3MeF][Bta][GlnR]A-NH2
modifications: bridge 10-14; not fully specified (bridges); reading uncertain; also: Lys*3 and GlnR*3 marked *3

IC50 [3]: < 750 nM
B20: I-41 (peptide)
peptide: Ac-[αAllylPro]D[tBuAla][B5(5)]D[Phe(3-COOH)]AAF[AsnR][PyrS2(5)][3Thi][Bta][Orn]-NH2
modifications: bridge 10-14; reading uncertain; also: PL3/B5/PyrS2 staple links not placed, printed as Ac-PL3-Asp-Npg-B5-Asp-3COOHF-Ala-Ala-Phe-AsnR*3-PyrS2-3Thi-BztA-Orn*3-NH2

Second part, the binder before the results:

B2: I-94 (peptide)
peptide: Ac-[αAllylPro]D[tBuAla][B5(4)]D[Phe(3-COOH)][GlnR](4aminopiperidine)AFL[PyrS2″][2F3MeF(3)][BztA][GlnR]A-NH2
modifications: staple 1-4 (inferred); not fully specified (bridges); printed as Ac-PL3-Asp-Npg-B5-Asp-3COOHF-[4aminopiperidine]GlnR-Ala-Phe-Leu-PyrS2-2F3MeF-BztA-GlnR-Ala-NH2; reading uncertain
IC50 [3]: < 750 nM

B4: I-58 (peptide)
peptide: Ac-[αAllylPro]D[tBuAla][B5(3)]D[Phe(3-COOH)]AAFK[PyrS2(3)][2F3MeF″][Bta][AsnR]A-NH2
modifications: bridge 10-14; not fully specified (bridges); printed as Ac-PL3-Asp-Npg-B5-Asp-3COOHF-Ala-Ala-Phe-Lys*3-PyrS2-2F3MeF-BztA-AsnR*3-Ala-NH2; reading uncertain
NanoBRET Abs IC50 [1]: > 10000 nM | IC50 [2]: < 200 nM

B5: I-89 (peptide)
peptide: Ac-[PL3][hSer][tBuAla][B5]D[Phe(3-COOH)]QAFK[PyrS2″][3Thi][BztA][GlnR]A-NH2
modifications: staple 1-4 (inferred); bridge 10-14; not fully specified (residue 10, bridges); printed as Ac-PL3-Hse-Npg-B5-Asp-3COOHF-Gln-Ala-Phe-Lys*3-PyrS2-3Thi-BztA-GlnR*3-Ala-NH2; reading uncertain; also: Lys10 and GlnR14 marked *3
IC50 [2]: < 200 nM

B6: I-36 (peptide)
peptide: Ac-[αAllylPro]D[tBuAla][B5(5)]D[Phe(3-COOH)]AAF[AsnR][PyrS2(5)][3Thi][Bta]K-NH2
modifications: bridge 10-14; not fully specified (bridges); printed as Ac-PL3-Asp-Npg-B5-Asp-3COOHF-Ala-Ala-Phe-AsnR*3-PyrS2-3Thi-BztA-Lys*3-NH2; reading uncertain
IC50 [3]: < 750 nM

B8: I-59 (peptide)
peptide: Ac-[αAllylPro]D[tBuAla][B5(3)]D[Phe(3-COOH)]AAFK[PyrS2(3)][2F3MeF″][Bta][AsnR]A-NH2
modifications: bridge 10-14; not fully specified (bridges); printed as Ac-PL3-Asp-Npg-B5-Asp-3COOHF-Ala-Ala-Phe-Lys*3-PyrS2-2F3MeF-BztA-AsnR*3-Ala-NH2; reading uncertain
NanoBRET Abs IC50 [1]: > 10000 nM | IC50 [2]: < 200 nM

B9: I-132 (peptide)
peptide: Ac-[αAllylPro]D[tBuAla][B5]D[Phe(3-COOH)][GlnR](29N2spiroundecane)AFL[PyrS2″][2F3MeF″][BztA″][GlnR]A-NH2
modifications: reading uncertain; also: staple links not given here, printed as Ac-PL3-Asp-Npg-B5-Asp-3COOHF-[29N2spiroundecane]GlnR-Ala-Phe-Leu-PyrS2-2F3MeF-BztA-GlnR-Ala-NH2
NanoBRET Abs IC50 [1]: > 10000 nM | IC50 [2]: < 200 nM

B12: I-93 (peptide)
peptide: Ac-[αAllylPro]D[tBuAla][B5(4)]D[Phe(3-COOH)][GlnR]AFL[PyrS2″][2F3MeF(3)][BztA][GlnR](4aminopiperidine)A-NH2
modifications: staple 1-4 (inferred); not fully specified (bridges); printed as Ac-PL3-Asp-Npg-B5-Asp-3COOHF-GlnR-Ala-Phe-Leu-PyrS2-2F3MeF-BztA-[4aminopiperidine]GlnR-Ala-NH2; reading uncertain
IC50 [3]: < 750 nM

B13: I-83 (peptide)
peptide: Ac-[PL3]D[tBuAla][B5][hSer][Phe(3-COOH)]AAFK[PyrS2″][3Thi][BztA][GlnR]A-NH2
modifications: staple 1-4 (inferred); bridge 10-14; not fully specified (residue 10, bridges); printed as Ac-PL3-Asp-Npg-B5-Hse-3COOHF-Ala-Ala-Phe-Lys*3-PyrS2-3Thi-BztA-GlnR*3-Ala-NH2; reading uncertain
IC50 [3]: < 750 nM

B15: I-27 (peptide)
peptide: Ac-[αAllylPro]D[tBuAla][B5(4)]D[Phe(3-COOH)][sAla]AF[TriAzLys(3)][PyrS2(6)][3Thi][Bta]Q-NH2
modifications: triazole 7-10; not fully specified (bridges); printed as Ac-PL3-Asp-Npg-B5-Asp-3COOHF-sAla*3-Ala-Phe-TriAzLys*3-PyrS2-3Thi-BztA-Gln-NH2; reading uncertain
IC50 [3]: < 750 nM

B17: I-87 (peptide)
peptide: Ac-[PL3]D[tBuAla][B5][hSer][Phe(3-COOH)]SAFK[PyrS2(5)][3Thi][BztA][GlnR]A-NH2
modifications: staple 1-4 (inferred); bridge 10-14; not fully specified (residue 10, bridges); printed as Ac-PL3-Asp-Npg-B5-Hse-3COOHF-Ser-Ala-Phe-Lys*3-PyrS2-3Thi-BztA-GlnR*3-Ala-NH2; reading uncertain; also: Lys10 and GlnR14 marked *3
IC50 [3]: < 750 nM

B18: I-130 (peptide)
peptide: Ac-[αAllylPro]D[tBuAla][B5]D[Phe(3-COOH)][GlnR]AFL[PyrS2″][2F3MeF″][BztA″][(39N2spiroundecane)GlnR]A-NH2
modifications: reading uncertain; also: staple links not given here, printed as Ac-PL3-Asp-Npg-B5-Asp-3COOHF-GlnR-Ala-Phe-Leu-PyrS2-2F3MeF-BztA-[39N2spiroundecane]GlnR-Ala-NH2
NanoBRET Abs IC50 [1]: > 10000 nM | IC50 [2]: < 200 nM

B19: I-134 (peptide)
peptide: Ac-[αAllylPro]D[tBuAla][B5]D[Phe(3-COOH)][GlnR]AFL[PyrS2][2F3MeF][Bta][GlnR](29N2spiroundecane)A-NH2
modifications: staple 1-4, 4-11 (inferred); not fully specified; printed as Ac-PL3-Asp-Npg-B5-Asp-3COOHF-GlnR-Ala-Phe-Leu-PyrS2-2F3MeF-BztA-[29N2spiroundecane]GlnR-Ala-NH2; reading uncertain; also: staple C=C reduced to CH2-CH2
NanoBRET Abs IC50 [1]: > 10000 nM | IC50 [3]: < 750 nM
